# In article PMC2577339 (Nucleic Acids Research, 2008):
# B1: Topoisomerase IIα (enzyme)
# chain: MEVSPLQPVNENMQVNKIKKNEDAKKRLSVERIYQKKTQLEHILLRPDTYIGSVELVTQQMWVYDEDVGINYREVTFVPGLYKIFDEILVNAADNKQRDPKMSCIRVTIDPENNLISIWNNGKGIPVVEHKVEKMYVPALIFGQLLTSSNYDDDEKKVTGGRNGYGAKLCNIFSTKFTVETASREYKKMFKQTWMDNMGRAGEMELKPFNGEDYTCITFQPDLSKFKMQSLDKDIVALMVRRAYDIAGSTKDVKVFLNGNKLPVKGFRSYVDMYLKDKLDETGNSLKVIHEQVNHRWEVCLTMSEKGFQQISFVNSIATSKGGRHVDYVADQIVTKLVDVVKKKNKGGVAVKAHQVKNHMWIFVNALIENPTFDSQTKENMTLQPKSFGSTCQLSEKFIKAAIGCGIVESILNWVKFKAQVQLNKKCSAVKHNRIKGIPKLDDANDAGGRNSTECTLILTEGDSAKTLAVSGLGVVGRDKYGVFPLRGKILNVREASHKQIMENAEINNIIKIVGLQYKKNYEDEDSLKTLRYGKIMIMTDQDQDGSHIKGLLINFIHHNWPSLLRHRFLEEFITPIVKVSKNKQEMAFYSLPEFEEWKSSTPNHKKWKVKYYKGLGTSTSKEAKEYFADMKRHRIQFKYSGPEDDAAISLAFSKKQIDDRKEWLTNFMEDRRQRKLLGLPEDYLYGQTTTYLTYNDFINKELILFSNSDNERSIPSMVDGLKPGQRKVLFTCFKRNDKREVKVAQLAGSVAEMSSYHHGEMSLMMTIINLAQNFVGSNNLNLLQPIGQFGTRLHGGKDSASPRYIFTMLSSLARLLFPPKDDHTLKFLYDDNQRVEPEWYIPIIPMVLINGAEGIGTGWSCKIPNFDVREIVNNIRRLMDGEEPLPMLPSYKNFKGTIEELAPNQYVISGEVAILNSTTIEISELPVRTWTQTYKEQVLEPMLNGTEKTPPLITDYREYHTDTTVKFVVKMTEEKLAEAERVGLHKVFKLQTSLTCNSMVLFDHVGCLKKYDTVLDILRDFFELRLKYYGLRKEWLLGMLGAESAKLNNQARFILEKIDGKIIIENKPKKELIKVLIQRGYDSDPVKAWKEAQQKVPDEEENEESDNEKETEKSDSVTDSGPTFNYLLDMPLWYLTKEKKDELCRLRNEKEQELDTLKRKSPSDLWKEDLATFIEELEAVEAKEKQDEQVGLPGKGGKAKGKKTQMAEVLPSPRGQRVIPRITIEMKAEAEKKNKKKIKNENTEGSPQEDGVELEGLKQRLEKKQKREPGTKTKKQTTLAFKPIKKGKKRNPWSDSESDRSSDESNFDVPPRETEPRRAATKTKFTMDLDSDEDFSDFDEKTDDEDFVPSDASPPKTKTSPKLSNKELKPQKSVVSDLEADDVKGSVPLSSSPPATHFPDETEITNPVPKKNVTVKKTAAKSQSSTSTTGAKKRAAPKGTKRDPALNSGVSQKPDPAKTKNRRKRKPSTSDDSDSNFEKIVSKAVTSKKSKGESDDFHMDFDSAVAPRAKSVRAKKPIKYLEESDEDDLF
# Target: the molecule itself
# Experiment: glycerol gradient sedimentation + SEC
protein,measurement,value
B1,stoichiometry N,2
